# Assay results: patent publication US10688131B2, “Peptides and scaffolds for use in immunotherapy against head and neck squamous cell carcinoma and other cancers” (Immatics Biotechnologies GmbH, priority 2016, dated 2020)
# Molecular target: HLA-A*02:01 (Homo sapiens, UniProt P04439, D140Y/D185E/D98H/E176V/E277Q/G131W/G231S/I119V/I121R/I166T/I218V/L300P/L318F/N151K/N90K/P208A/P217A/Q86G/Q94H/R138H/R169H/T345S)
# Assay: MHC binding assay: UV-ligand exchange with β2m ELISA
# Settings: binding of HLA-class I restricted peptides to HLA-A*02:01
# Description: Candidate peptides for T cell based therapies according to the present invention were further tested for their MHC binding capacity (affinity). The individual peptide-MHC complexes were produced by UV-ligand exchange, where a UV-sensitive peptide is cleaved upon UV-irradiation, and exchanged with the peptide of interest as analyzed. Only peptide candidates that can effectively bind and stabilize the peptide-receptive MHC molecules prevent dissociation of the MHC complexes. To determine the yield of the exchange reaction, an ELISA was performed based on the detection of the light chain (β2m) of stabilized MHC complexes. The assay was performed as generally described in Rodenko et al. (Rodenko et al., 2006).
# 96 well MAXISorp plates (NUNC) were coated over night with 2 ug/ml streptavidin in PBS at room temperature, washed 4× and blocked for 1 h at 37° C. in 2% BSA containing blocking buffer. Refolded HLA-A*02:01/MLA-001 monomers served as standards, covering the range of 15-500 ng/ml. Peptide-MHC monomers of the UV-exchange reaction were diluted 100-fold in blocking buffer. Samples were incubated for 1 h at 37° C., washed four times, incubated with 2 ug/ml HRP conjugated anti-β2m for 1 h at 37° C., washed again and detected with TMB solution that is stopped with […]. Absorption was measured at 450 nm. Candidate peptides that show a high exchange yield (preferably higher than 50%, most preferred higher than 75%) are generally preferred for a generation and production of antibodies or fragments thereof, and/or T cell receptors or fragments thereof, as they show sufficient avidity to the MHC molecules and prevent dissociation of the MHC complexes.
row,Substance,"Peptide exchange (MHC class I binding score, peptide exchange yield)"
1,42 (ALYTSGHLL; listed as Homo sapiens) [compound 42],++++ (>75% = ++++)
2,47 (QLLEGELETL; listed as Homo sapiens) [compound 47],+++ (>50 = +++)
3,5 (VCPPGGIQEV; listed as Homo sapiens) [compound 5],+++ (>50 = +++)
4,48 (YLLDYPNNL; listed as Homo sapiens) [compound 48],+++ (>50 = +++)
5,6 (ALYDAELSQM; listed as Homo sapiens) [compound 6],+++ (>50 = +++)
6,49 (YLWEAHTNI; listed as Homo sapiens) [compound 49],++++ (>75% = ++++)
7,37 (ILLEDVFQL; listed as Homo sapiens) [compound 37],++++ (>75% = ++++)
8,41 (RLNGEGVGQVNISV; listed as Homo sapiens) [compound 41],++ (>20% = ++)
9,40 (LLTPLNLQI; listed as Homo sapiens) [compound 40],+++ (>50 = +++)
10,25 (SLCPPGGIQEV; listed as Homo sapiens) [compound 25],++++ (>75% = ++++)
11,15 (SMLNNIINL; listed as Homo sapiens) [compound 15],+++ (>50 = +++)
12,23 (SLPESGLLSV; listed as Homo sapiens) [compound 23],+++ (>50 = +++)
13,32 (IQDAEGAIHEV; listed as Homo sapiens) [compound 32],++++ (>75% = ++++)
14,35 (ALVGDVILTV; listed as Homo sapiens) [compound 35],++++ (>75% = ++++)
15,27 (YLAEPQWAV; listed as Homo sapiens) [compound 27],++++ (>75% = ++++)
16,51 (FLIPSIIFA; listed as Homo sapiens) [compound 51],++++ (>75% = ++++)
17,7 (ALEEANADLEV; listed as Homo sapiens) [compound 7],+++ (>50 = +++)
18,44 (GLGDDSFPI; listed as Homo sapiens) [compound 44],++++ (>75% = ++++)
19,34 (ALDTFSVQV; listed as Homo sapiens) [compound 34],++++ (>75% = ++++)
20,24 (LLIAINPQV; listed as Homo sapiens) [compound 24],++++ (>75% = ++++)
21,50 (ALSNVVHKV; listed as Homo sapiens) [compound 50],++++ (>75% = ++++)
22,38 (KLLPGVQYV; listed as Homo sapiens) [compound 38],++++ (>75% = ++++)
23,4 (ILDINDNPPV; listed as Homo sapiens) [compound 4],+++ (>50 = +++)
24,52 (LLFTGLVSGV; listed as Homo sapiens) [compound 52],+++ (>50 = +++)
25,33 (AIYEGVGWNV; listed as Homo sapiens) [compound 33],++++ (>75% = ++++)
26,22 (KLPEPCPSTV; listed as Homo sapiens) [compound 22],+++ (>50 = +++)
27,45 (GLIEWLENTV; listed as Homo sapiens) [compound 45],++++ (>75% = ++++)
28,2 (PVCPPGGIQEV; listed as Homo sapiens) [compound 2],+++ (>50 = +++)
29,36 (GLWSSIFSL; listed as Homo sapiens) [compound 36],++++ (>75% = ++++)

# More lines, now with the values ahead:
row,"Peptide exchange (MHC class I binding score, peptide exchange yield)",Substance
1,++++ (>75% = ++++),57 (AILGFALSEA; listed as Homo sapiens) [compound 57]
2,++++ (>75% = ++++),83 (QLLQYVYNL; listed as Homo sapiens) [compound 83]
3,+++ (>50 = +++),81 (VLAENPDIFAV; listed as Homo sapiens) [compound 81]
4,++ (>20% = ++),68 (KILEMDDPRA; listed as Homo sapiens) [compound 68]
5,+++ (>50 = +++),64 (KILESLFVSL; listed as Homo sapiens) [compound 64]
6,+++ (>50 = +++),79 (GLHQDFPSVVL; listed as Homo sapiens) [compound 79]
7,++++ (>75% = ++++),71 (SLFPYVVLI; listed as Homo sapiens) [compound 71]
8,+++ (>50 = +++),87 (ALPEPSPAA; listed as Homo sapiens) [compound 87]
9,++++ (>75% = ++++),63 (ALMDEINFMKM; listed as Homo sapiens) [compound 63]
10,++++ (>75% = ++++),80 (GLYGIKDDVFL; listed as Homo sapiens) [compound 80]
11,++++ (>75% = ++++),91 (MLFENMGAYTV; listed as Homo sapiens) [compound 91]
12,++++ (>75% = ++++),62 (ILSSACYTV; listed as Homo sapiens) [compound 62]
13,++++ (>75% = ++++),75 (ALASAPTSV; listed as Homo sapiens) [compound 75]
14,++++ (>75% = ++++),61 (FVAGYIAGV; listed as Homo sapiens) [compound 61]
15,++++ (>75% = ++++),76 (ILFDEVLTFA; listed as Homo sapiens) [compound 76]
16,++++ (>75% = ++++),70 (FLFPAFLTA; listed as Homo sapiens) [compound 70]
17,++++ (>75% = ++++),65 (ALWGFFPVLL; listed as Homo sapiens) [compound 65]

row,"Peptide exchange (MHC class I binding score, peptide exchange yield)",Substance
1,+++ (>50 = +++),73 (YIDPYKLLPL; listed as Homo sapiens) [compound 73]
2,++++ (>75% = ++++),89 (VLDEGLTSV; listed as Homo sapiens) [compound 89]
3,+++ (>50 = +++),88 (LMAPAPSTV; listed as Homo sapiens) [compound 88]
4,+++ (>50 = +++),78 (VLYGDVEEL; listed as Homo sapiens) [compound 78]
5,+++ (>50 = +++),54 (RLSGEGVGPV; listed as Homo sapiens) [compound 54]
6,++++ (>75% = ++++),90 (TLNDGVVVQV; listed as Homo sapiens) [compound 90]
7,++ (>20% = ++),77 (SLRAFLMPI; listed as Homo sapiens) [compound 77]
8,++++ (>75% = ++++),53 (RLVEVGGDVQL; listed as Homo sapiens) [compound 53]
9,+++ (>50 = +++),60 (SLGNFKDDLL; listed as Homo sapiens) [compound 60]
10,++++ (>75% = ++++),84 (ALMAGCIQEA; listed as Homo sapiens) [compound 84]
11,++++ (>75% = ++++),66 (TLLSEIAEL; listed as Homo sapiens) [compound 66]
12,+++ (>50 = +++),55 (VLNVGVAEV; listed as Homo sapiens) [compound 55]
13,+++ (>50 = +++),58 (SLSDIQPCL; listed as Homo sapiens) [compound 58]
14,++++ (>75% = ++++),69 (YVMESMTYL; listed as Homo sapiens) [compound 69]
15,++++ (>75% = ++++),72 (SLDGNPLAV; listed as Homo sapiens) [compound 72]
16,++++ (>75% = ++++),67 (AQLNLIWQL; listed as Homo sapiens) [compound 67]
